Data from patent US20240034757A1 (OXFORD UNIVERSITY INNOVATION, published 2024).

Experiments:
CCL8_HUMAN [1] = molecular target: T1, CCL8_HUMAN (human, UniProt P80075 24-99); experiment: BLI
T1 sequence (looked up): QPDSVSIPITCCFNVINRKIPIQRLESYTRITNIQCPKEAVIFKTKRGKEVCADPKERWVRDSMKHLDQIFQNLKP

CCL8_HUMAN [2] = molecular target: T1, CCL8_HUMAN; experiment: cell-based or functional assay
CXCL9_HUMAN = molecular target: T2, CXCL9_HUMAN (human, UniProt Q07325 23-125); experiment: BLI
T2 sequence: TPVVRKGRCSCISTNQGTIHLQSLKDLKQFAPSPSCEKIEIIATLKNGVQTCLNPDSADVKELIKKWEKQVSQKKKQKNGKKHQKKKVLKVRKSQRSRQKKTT

CXCL12_HUMAN = CXCL12_HUMAN (human, UniProt P48061 22-89); experiment: BLI
CXCL12_HUMAN, sequence (P48061 22-89 limits assumed): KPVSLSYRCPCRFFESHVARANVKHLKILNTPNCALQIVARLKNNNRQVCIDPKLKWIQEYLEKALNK

CXCL13_HUMAN = molecular target: T3, CXCL13_HUMAN (human, UniProt O43927 23-109); experiment: BLI
T3 sequence: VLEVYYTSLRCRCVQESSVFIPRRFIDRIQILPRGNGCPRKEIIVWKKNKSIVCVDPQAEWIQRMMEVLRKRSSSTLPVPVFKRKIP

CXCL14_HUMAN = molecular target: T4, CXCL14_HUMAN (human, UniProt O95715 35-111); experiment: BLI
T4 sequence: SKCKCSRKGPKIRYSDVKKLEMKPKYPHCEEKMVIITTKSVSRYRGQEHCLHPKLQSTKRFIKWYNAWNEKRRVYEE

mouse CXCL10 = molecular target: T5, mouse CXCL10 (mouse, UniProt P17515 22-98); experiment: cell-based or functional assay
T5 sequence: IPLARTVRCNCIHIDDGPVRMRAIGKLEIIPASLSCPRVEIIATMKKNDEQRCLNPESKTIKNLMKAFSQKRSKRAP

mouse CXCL1 = molecular target: T6, mouse CXCL1 (mouse, UniProt P12850 25-96); experiment: cell-based or functional assay
T6 sequence: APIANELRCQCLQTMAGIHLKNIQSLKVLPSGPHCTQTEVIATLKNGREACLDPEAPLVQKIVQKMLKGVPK

mouse CXCL2 = molecular target: T7, mouse CXCL2 (mouse, UniProt P10889 28-100); experiment: cell-based or functional assay
T7 sequence: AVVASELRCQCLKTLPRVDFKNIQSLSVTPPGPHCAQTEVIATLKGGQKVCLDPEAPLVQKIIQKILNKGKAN

CXCL8_HUMAN [3] = molecular target: T8, CXCL8_HUMAN (human, UniProt P10145 28-99); experiment: BLI [Cont.]
T8 sequence: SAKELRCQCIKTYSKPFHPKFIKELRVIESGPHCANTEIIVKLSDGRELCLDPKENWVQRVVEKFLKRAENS

CXCL7_HUMAN = molecular target: T9, CXCL7_HUMAN (human, UniProt P02775 59-128); experiment: yeast surface display FACS re-test; note: test concentration or dose not given here
T9 sequence: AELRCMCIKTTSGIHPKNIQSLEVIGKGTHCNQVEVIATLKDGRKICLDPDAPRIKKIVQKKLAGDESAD

CXCL10_HUMAN [4] = molecular target: T10, CXCL10_HUMAN (human, UniProt P02778 22-98); experiment: yeast surface display FACS re-test; note: test concentration or dose not given here
T10 sequence: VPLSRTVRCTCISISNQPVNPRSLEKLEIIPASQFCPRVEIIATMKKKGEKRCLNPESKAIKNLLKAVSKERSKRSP

CCL5_HUMAN = molecular target: T11, CCL5_HUMAN (human, UniProt P13501 24-91); experiment: BLI, evasin immobilised
T11 sequence: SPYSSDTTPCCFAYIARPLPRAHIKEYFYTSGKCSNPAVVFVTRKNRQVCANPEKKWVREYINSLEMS

CCL8_HUMAN [5] = molecular target: T1, CCL8_HUMAN; experiment: BLI, evasin immobilised
CXCL1_HUMAN = molecular target: T12, CXCL1_HUMAN (human, UniProt P09341 35-107); experiment: BLI, evasin immobilised
T12 sequence: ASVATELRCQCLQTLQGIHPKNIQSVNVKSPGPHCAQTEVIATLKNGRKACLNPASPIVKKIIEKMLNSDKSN

CXCL8_HUMAN [6] = molecular target: T8, CXCL8_HUMAN; experiment: BLI, evasin immobilised
CXCL10_HUMAN [7] = molecular target: T10, CXCL10_HUMAN; experiment: BLI, evasin immobilised
CCL2_HUMAN = CCL2_HUMAN (human, UniProt P13500 24-99); experiment: BLI, evasin immobilised
CCL2_HUMAN, sequence (P13500 24-99 limits assumed): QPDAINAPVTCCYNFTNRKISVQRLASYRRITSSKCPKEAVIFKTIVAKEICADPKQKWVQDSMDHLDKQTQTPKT

Binder	binding result (CXCL12_HUMAN)	binding result (CXCL13_HUMAN)	binding result (CXCL14_HUMAN)	binding result (CXCL8_HUMAN [3])	% cells over threshold fluorescence (CXCL7_HUMAN)	% cells over threshold fluorescence (CXCL10_HUMAN [4])	Kd (CCL5_HUMAN)	Kd (CCL8_HUMAN [5])	Kd (CXCL1_HUMAN)	Kd (CXCL8_HUMAN [6])	Kd (CXCL10_HUMAN [7])	Kd (CCL2_HUMAN)	further results
P672:EVA1 (P672_RHIPU (1-44): EVA1_RHISA (29-94)) (designed binder) VCEVSEQEGVGEDNATEDEDYEDFFKPVTCYFANSTVGPLRPPNCKQDCNGTTETAPNGTRCFSIGDEGLRRMTANLPYDCPLGQCSNGDCIPKETYEVCYRRNWRDEKN													Kd (CCL8_HUMAN [1]): 223 nM; IC50, CCL8 induced THP-1 monocyte cell migration (CCL8_HUMAN [2]): 48 nM
P1142_AMBCA (other) KPQILQRTDHSTDSDWDPQMCPETCNPSKNISCSSECLCVTLGGGDETGTCFNMSGVDWLGHAQASDGHNDG	no binding (tested: 300 nM)	no binding (tested: 300 nM)	no binding (tested: 300 nM)	no binding (tested: 300 nM)	71%	80%							binding result (CXCL9_HUMAN): no binding (tested: 300 nM); IC50, activated mouse T cell migration (mouse CXCL10): 3.37 nM; IC50, mouse bone marrow granulocyte cell migration (mouse CXCL1): 2.15 nM; IC50, mouse bone marrow granulocyte cell migration (mouse CXCL2): 0.66 nM
P1126_AMBCA (other) KPQILQRTDKSTDSEWDPQTCPETCIPSKNITCSDGCVCVKLGEEEEGTCFNMTGVDWLGSPSDD	no binding (tested: 300 nM)	no binding (tested: 300 nM)	no binding (tested: 300 nM)	no binding (tested: 300 nM)	74%	66%							
Evasin-1 peptide variant K92E encoded by EZ406190.1 (other, also called Evasin-1 (EZ406190.1)) EDDEDYGDLGGCPFLVAENKTGYPTIVACKQDCNGTTETAPNGTRCFSIGDEGLRRMTANLPYDCPLGQCSNGDCIPKETYEVCYRRNWRDEKN													binding result (CCL8_HUMAN [1]): no binding (tested: 300 nM)
P1820 (P1142:G4S:P1156:G4S:P467) (designed binder) KPQILQRTDHSTDSDWDPQMCPETCNPSKNISCSSECLCVTLGGGDETGTCFNMSGVDWLGHAQASDGHNDGGGGGSADDDNELFTVQYCGMNCTKDEGGTWTGCTGKKEGCKCYHESGKNYGLCLSTEYTDFSQYGNPSDSEIEAAKPKRSDTLSHGGGGSAEKSLDSDSSGEDYELWTQGCPFLVAENRTGFGTTVSCQHNCNGAIEKVPEGEPCYTIGEDGLGRMKLNLPYNCSLGECSGGVCVPNGRSDVCFKRTWEENNKAMA							0.41 nM	18.2 nM	1.12 nM	1.11 nM	1.01 nM	2.86 nM	
P1821 (P1142:G4S:P1156:G4S:P991) (designed binder) KPQILQRTDHSTDSDWDPQMCPETCNPSKNISCSSECLCVTLGGGDETGTCFNMSGVDWLGHAQASDGHNDGGGGGSADDDNELFTVQYCGMNCTKDEGGTWTGCTGKKEGCKCYHESGKNYGLCLSTEYTDFSQYGNPSDSEIEAAKPKRSDTLSHGGGGSENGEGTTQPDYDNSTDYYNYEDFKCTCPAPHLNNTNGTVMKPIGCYYTCNVTRCTAPDTYPCYNLTEHQAKNLTTSPTTLCAVGNCDHGICVPNGTKELCFKAPNLEE							0.001 nM	14.1 nM	1.86 nM	1.55 nM	1.44 nM	11.8 nM	
